Assay results reported in paper PMC9293207, “Impact of C‐terminal truncations in the Arabidopsis Rab escort protein (REP) on REP–Rab interaction and plant fertility” (The Plant Journal, 2021).
Values belong to the binder of their own block, whether it stands above or below them.

Tests used:
Details in all cases: both partners purified
[1] = molecular target: T1, Rab escort protein (REP), recombinant REP‐His (Arabidopsis thaliana, UniProt Q8LLD4 1-563); experiment: SEC; purified proteins diluted to 65 nM in 200 μl Tris 20 mM pH 7.5, 100 mM NaCl, 10 mM MgCl2, 1 mM DTT, 1.5 mM GDP, incubated 4 h at room temperature; Superdex 75 10/300 GL; fractions resolved by SDS‐PAGE
T1 construct: Rab escort protein (REP) of Arabidopsis thaliana, wild type; Plasmid was a gift (Dr. Michal Hala); HDX‐MS peptides are reported from region 1–14 to beyond amino acid 534, so the whole protein was probably present; also called WT REP; AtREP; source: E. coli BL21(DE3)pLysS, purified (Ni‐NTA agarose, HiTrapQ, Superdex 75)
T1 sequence (looked up): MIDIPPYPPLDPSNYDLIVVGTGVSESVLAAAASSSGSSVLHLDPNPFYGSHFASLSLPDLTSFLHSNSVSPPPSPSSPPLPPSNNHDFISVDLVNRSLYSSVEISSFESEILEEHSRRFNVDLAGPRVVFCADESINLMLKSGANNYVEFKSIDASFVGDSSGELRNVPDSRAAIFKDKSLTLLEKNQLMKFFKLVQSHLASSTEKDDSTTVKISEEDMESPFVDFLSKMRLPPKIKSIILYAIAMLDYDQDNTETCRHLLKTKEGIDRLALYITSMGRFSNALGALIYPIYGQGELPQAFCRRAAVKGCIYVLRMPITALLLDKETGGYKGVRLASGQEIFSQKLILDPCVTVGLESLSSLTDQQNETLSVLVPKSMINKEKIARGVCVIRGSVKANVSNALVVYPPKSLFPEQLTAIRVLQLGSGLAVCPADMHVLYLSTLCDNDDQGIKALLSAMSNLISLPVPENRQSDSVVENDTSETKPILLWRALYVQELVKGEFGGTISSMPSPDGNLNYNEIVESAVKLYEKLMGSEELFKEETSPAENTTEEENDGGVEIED

[2] = molecular target: T2, REPΔC‐His, truncated form of REP lacking 30 C‐terminal amino acids (Arabidopsis thaliana, UniProt Q8LLD4 1-533); experiment: as above
T2 construct: Rab escort protein (REP) of Arabidopsis thaliana lacking 30 C‐terminal amino acids; cloned from pGWB551‐REP with primers BP‐rep‐F and BP‐rep‐R into pET301/CT‐DEST; Gateway cloning (pDONR201, pET301/CT‐DEST) may add linker residues between REP and the His tag; also called truncated mutant; truncated REP version; source: E. coli BL21(DE3)pLysS, purified (Ni‐NTA agarose)
T2 sequence (looked up): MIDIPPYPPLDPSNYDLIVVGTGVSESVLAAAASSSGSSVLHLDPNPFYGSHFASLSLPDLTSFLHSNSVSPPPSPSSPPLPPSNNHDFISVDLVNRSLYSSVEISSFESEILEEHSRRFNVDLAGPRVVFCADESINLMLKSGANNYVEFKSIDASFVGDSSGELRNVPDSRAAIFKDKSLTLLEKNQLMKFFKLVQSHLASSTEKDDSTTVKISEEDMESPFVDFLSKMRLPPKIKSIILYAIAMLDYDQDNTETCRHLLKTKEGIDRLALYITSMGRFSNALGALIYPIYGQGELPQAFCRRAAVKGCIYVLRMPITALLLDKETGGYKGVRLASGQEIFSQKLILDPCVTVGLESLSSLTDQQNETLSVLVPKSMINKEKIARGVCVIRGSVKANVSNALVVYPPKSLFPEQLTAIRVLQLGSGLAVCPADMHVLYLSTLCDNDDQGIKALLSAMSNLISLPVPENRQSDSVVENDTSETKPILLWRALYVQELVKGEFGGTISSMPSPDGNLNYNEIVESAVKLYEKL

[3] = molecular target: T1, Rab escort protein (REP), recombinant …; experiment: HDX-MS; complexes of REP‐His with GST‐Rab from SEC against each protein alone (apo); 20 mM Tris‐DCl, 100 mM NaCl, 5 mM MgCl2, 1 mM GDP pH 7.5 in D2O; 10 sec, 1 min, 60 min; pepsin digestion; triplicate

binding result [1]: binds
binding result [2]: binds
B1: GST‐Rab‐E1d (natural protein)
chain: not shown
notes: Rab‐E1d of Arabidopsis thaliana, cloned from Col‐0 leaf cDNA into pGEX4T1 cut with SmaI; unprenylated; Used in the presence of GDP; source: E. coli BL21(DE3)pLysS, purified (Glutathione‐Sepharose 4B, Superdex 75)

binding result [3]: binds
binding result [2]: binds
B2: GST‐Rab‐D1 (natural protein)
chain: not shown
notes: Rab‐D1 of Arabidopsis thaliana, cloned from Col‐0 leaf cDNA into pGEX4T1 cut with SmaI; unprenylated; Used in the presence of GDP; source: E. coli BL21(DE3)pLysS, purified (Glutathione‐Sepharose 4B, Superdex 75)

binding result [3]: binds
B3: GST‐Rab‐F2b (natural protein, Arabidopsis thaliana, UniProt Q9SN68 1-200, looked up)
chain: MAAAGNKSINAKLVLLGDVGAGKSSLVLRFVKDQFVEFQESTIGAAFFSQTLAVNDATVKFEIWDTAGQERYHSLAPMYYRGAAAAIIVFDVTNQASFERAKKWVQELQAQGNPNMVMALAGNKSDLLDARKVTAEDAQTYAQENGLFFMETSAKTATNVKEIFYEIARRLPRVQPTENPTGMVLPDRAMDRAVSSSCCA
notes: Rab‐F2b of Arabidopsis thaliana, cloned from Col‐0 leaf cDNA into pGEX4T1 cut with SmaI; unprenylated; Used in the presence of GDP; source: E. coli BL21(DE3)pLysS, purified (Glutathione‐Sepharose 4B, Superdex 75)

binding result [1]: binds
B4: Rab‐E1d cleaved from its GST tag (natural protein)
chain: not shown
notes: Rab‐E1d of Arabidopsis thaliana, from GST‐Rab‐E1d (pGEX4T1, SmaI) after thrombin cleavage; A few vector‐derived residues probably remain at the end after thrombin cleavage; also called E1d no tag; untagged Rab‐E1d
